From patent publication US11332512B2, “Peptides and combination of peptides for use in immunotherapy against various tumors” (Immatics Biotechnologies GmbH, priority 2015, dated 2022)

Target: HLA-A*02:01 (Homo sapiens, UniProt P04439, D140Y/D185E/D98H/E176V/E277Q/G131W/G231S/I119V/I121R/I166T/I218V/L300P/L318F/N151K/N90K/P208A/P217A/Q86G/Q94H/R138H/R169H/T345S)
Experiment: MHC binding assay: UV-ligand exchange with beta2m ELISA (peptide exchange yield)
Settings: binding to HLA-A*02:01, β2m ELISA
From the text: Candidate peptides for T cell based therapies according to the present invention were further tested for their MHC binding capacity (affinity). The individual peptide-MHC complexes were produced by UV-ligand exchange, where a UV-sensitive peptide is cleaved upon UV-irradiation, and exchanged with the peptide of interest as analyzed. Only peptide candidates that can effectively bind and stabilize the peptide-receptive MHC molecules prevent dissociation of the MHC complexes. To determine the yield of the exchange reaction, an ELISA was performed based on the detection of the light chain (β2m) of stabilized MHC complexes. The assay was performed as generally described in Rodenko et al. (Rodenko et al., 2006).
96 well MAXISorp plates (NUNC) were coated over night with 2 ug/ml streptavidin in PBS at room temperature, washed 4× and blocked for 1 h at 37° C. in 2% BSA containing blocking buffer. Refolded HLA-A*02:01/MLA-001 monomers served as standards, covering the range of 15-500 ng/ml. Peptide-MHC monomers of the UV-exchange reaction were diluted 100 fold in blocking buffer. Samples were incubated for 1 h at 37° C., washed four times, incubated with 2 ug/ml HRP conjugated anti-β2m for 1 h at 37° C., washed again and detected with TMB solution that is stopped with […]. Absorption was measured at 450 nm. Candidate peptides that show a high exchange yield (preferably higher than 50%, most preferred higher than 75%) are generally preferred for a generation and production of antibodies or fragments thereof, and/or T cell receptors or fragments thereof, as they show sufficient avidity to the MHC molecules and prevent dissociation of the MHC complexes.

| Substance | Peptide exchange (MHC class I binding score, peptide exchange yield) |
| --- | --- |
| 3 (RVIDDSLVVGV; listed as Homo sapiens) [compound 3] | +++ (= ≥50% = +++) |
| 5 (GLVDIMVHL; listed as Homo sapiens) [compound 5] | +++ (= ≥50% = +++) |
| 7 (ALLQALMEL; listed as Homo sapiens) [compound 7] | +++ (= ≥50% = +++) |
| 10 (QLIEKNWLL; listed as Homo sapiens) [compound 10] | +++ (= ≥50% = +++) |
| 11 (LLDPKTIFL; listed as Homo sapiens) [compound 11] | +++ (= ≥50% = +++) |
| 12 (RLLDPKTIFL; listed as Homo sapiens) [compound 12] | +++ (= ≥50% = +++) |
| 13 (RLHDENILL; listed as Homo sapiens) [compound 13] | +++ (= ≥50% = +++) |
| 16 (SLADLSLLL; listed as Homo sapiens) [compound 16] | +++ (= ≥50% = +++) |
| 21 (YLMDDFSSL; listed as Homo sapiens) [compound 21] | +++ (= ≥50% = +++) |
| 22 (LMYPYIYHV; listed as Homo sapiens) [compound 22] | +++ (= ≥50% = +++) |
| 23 (ALLSPLSLA; listed as Homo sapiens) [compound 23] | +++ (= ≥50% = +++) |
| 24 (KVWSDVTPL; listed as Homo sapiens) [compound 24] | +++ (= ≥50% = +++) |
| 25 (LLWGHPRVALA; listed as Homo sapiens) [compound 25] | +++ (= ≥50% = +++) |
| 26 (VLDGKVAVV; listed as Homo sapiens) [compound 26] | +++ (= ≥50% = +++) |
| 30 (IITEVITRL; listed as Homo sapiens) [compound 30] | +++ (= ≥50% = +++) |
| 31 (GLLETTGLLAT; listed as Homo sapiens) [compound 31] | +++ (= ≥50% = +++) |
| 36 (TVLQELINV; listed as Homo sapiens) [compound 36] | +++ (= ≥50% = +++) |
| 40 (KIWEELSVLEV; listed as Homo sapiens) [compound 40] | +++ (= ≥50% = +++) |

| Substance | Peptide exchange (MHC class I binding score, peptide exchange yield) |
| --- | --- |
| 41 (IVTEIISEI; listed as Homo sapiens) [compound 41] | +++ (= ≥50% = +++) |
| 44 (AVFNLVHVV; listed as Homo sapiens) [compound 44] | +++ (= ≥50% = +++) |
| 45 (FLPVSVVYV; listed as Homo sapiens) [compound 45] | +++ (= ≥50% = +++) |
| 47 (GLNGFNVLL; listed as Homo sapiens) [compound 47] | +++ (= ≥50% = +++) |
| 48 (KISDFGLATV; listed as Homo sapiens) [compound 48] | +++ (= ≥50% = +++) |
| 54 (YLVPGLVAA; listed as Homo sapiens) [compound 54] | +++ (= ≥50% = +++) |
| 55 (HLFDKIIKI; listed as Homo sapiens) [compound 55] | +++ (= ≥50% = +++) |
| 58 (HLLGEGAFAQV; listed as Homo sapiens) [compound 58] | +++ (= ≥50% = +++) |
| 59 (ALADGIKSFLL; listed as Homo sapiens) [compound 59] | +++ (= ≥50% = +++) |
| 60 (YLFSQGLQGL; listed as Homo sapiens) [compound 60] | +++ (= ≥50% = +++) |
| 61 (ALYPKEITL; listed as Homo sapiens) [compound 61] | +++ (= ≥50% = +++) |
| 62 (SLVENIHVL; listed as Homo sapiens) [compound 62] | +++ (= ≥50% = +++) |
| 63 (KLLPMVIQL; listed as Homo sapiens) [compound 63] | +++ (= ≥50% = +++) |
| 67 (FLIENLLAA; listed as Homo sapiens) [compound 67] | +++ (= ≥50% = +++) |
| 68 (QLMNLIRSV; listed as Homo sapiens) [compound 68] | +++ (= ≥50% = +++) |
| 75 (ALLDGALQL; listed as Homo sapiens) [compound 75] | +++ (= ≥50% = +++) |
| 76 (FTAEFLEKV; listed as Homo sapiens) [compound 76] | +++ (= ≥50% = +++) |
| 80 (VLTGQVHEL; listed as Homo sapiens) [compound 80] | +++ (= ≥50% = +++) |

More lines, now with the values ahead:

| Peptide exchange (MHC class I binding score, peptide exchange yield) | Substance |
| --- | --- |
| +++ (= ≥50% = +++) | 82 (ILAEEPIYIRV; listed as Homo sapiens) [compound 82] |
| +++ (= ≥50% = +++) | 86 (SLFSNIESV; listed as Homo sapiens) [compound 86] |
| +++ (= ≥50% = +++) | 87 (KLLSLLEEA; listed as Homo sapiens) [compound 87] |
| +++ (= ≥50% = +++) | 88 (LLLPLELSLA; listed as Homo sapiens) [compound 88] |
| +++ (= ≥50% = +++) | 94 (YLDEVAFML; listed as Homo sapiens) [compound 94] |
| +++ (= ≥50% = +++) | 95 (KLIDEDEPLFL; listed as Homo sapiens) [compound 95] |
| +++ (= ≥50% = +++) | 98 (FVQEKIPEL; listed as Homo sapiens) [compound 98] |
| +++ (= ≥50% = +++) | 99 (TLFGIQLTEA; listed as Homo sapiens) [compound 99] |
| +++ (= ≥50% = +++) | 100 (ALQSFEFRV; listed as Homo sapiens) [compound 100] |
| +++ (= ≥50% = +++) | 108 (FIANLPPELKA; listed as Homo sapiens) [compound 108] |
| +++ (= ≥50% = +++) | 109 (ILGSFELQL; listed as Homo sapiens) [compound 109] |
| +++ (= ≥50% = +++) | 111 (AQLEGKLVSI; listed as Homo sapiens) [compound 111] |
| +++ (= ≥50% = +++) | 112 (ILAQDVAQL; listed as Homo sapiens) [compound 112] |
| +++ (= ≥50% = +++) | 122 (SIIDTELKV; listed as Homo sapiens) [compound 122] |
| +++ (= ≥50% = +++) | 125 (AALEVLAEV; listed as Homo sapiens) [compound 125] |
| +++ (= ≥50% = +++) | 126 (QLREAFEQL; listed as Homo sapiens) [compound 126] |
| +++ (= ≥50% = +++) | 130 (QLYGSAITL; listed as Homo sapiens) [compound 130] |
| +++ (= ≥50% = +++) | 131 (SLYPHFTLL; listed as Homo sapiens) [compound 131] |
| +++ (= ≥50% = +++) | 132 (ALLNNVIEV; listed as Homo sapiens) [compound 132] |
| +++ (= ≥50% = +++) | 136 (LLWDAPAKC; listed as Homo sapiens) [compound 136] |
| +++ (= ≥50% = +++) | 139 (IILENIQSL; listed as Homo sapiens) [compound 139] |
| +++ (= ≥50% = +++) | 140 (FLDSQITTV; listed as Homo sapiens) [compound 140] |
| +++ (= ≥50% = +++) | 143 (MLWESIMRV; listed as Homo sapiens) [compound 143] |
| +++ (= ≥50% = +++) | 144 (FLISQTPLL; listed as Homo sapiens) [compound 144] |
| +++ (= ≥50% = +++) | 145 (ALEEKLENV; listed as Homo sapiens) [compound 145] |
| +++ (= ≥50% = +++) | 147 (GLLSALENV; listed as Homo sapiens) [compound 147] |
